Key:
[1] = biological target: 1059-SOSIP soluble Env trimer produced in FreeStyle 293 F cells (HIV-1 1059); assay: SEC; HiLoad 16/600 Superdex 200 pg column after GNA lectin affinity purification; trimeric fractions taken
[2] = biological target: 1059-SOSIP soluble Env trimer produced in HEK293 cells grown in BalanCD medium (HIV-1 1059); assay: as above

Row | Substance | stoichiometry N [1] | stoichiometry N [2]
1 | 1059-SOSIP soluble Env trimer produced in FreeStyle 293 F cells (domain or fragment) | 3 | –
2 | 1059-SOSIP soluble Env trimer produced in HEK293 cells grown in BalanCD medium (domain or fragment) | – | 3

Source: paper PMC12645962
